Experimental data as given in US20150329642A1 (Genmab, published 2015).

Assays:
[1] = molecular target: T1, recombinant human c-Met extracellular domain (R&D systems) (human, UniProt P08581 25-932); test: competition ELISA on coated recombinant c-Met extracellular domain; blocked ligand Europium-conjugated HGF; column headed EC50 on the sheet, called IC50 in paragraph 270; upper panel
T1 construct: extracellular domain; Bought reagent; also called coated extracellular domain of c-Met; recombinant c-Met
Description: (§1) ELISA wells were coated overnight at 4° C. with 0.5 μg/mL recombinant human c-Met extracellular domain (R&D systems, Minneapolis, USA) diluted in PBS. Next, the ELISA wells were washed with PBST (PBS supplemented with 0.05% Tween-20 [Sigma-Aldrich, Zwijndrecht, The Netherlands]) and blocked for one hour at room temperature (RT) with PBST supplemented with 2% (v/v) chicken serum (Gibco, Paisley, Scotland). […] Mean fluorescence intensity at 615 nm was measured using the EnVision 2101 Multilabel reader (PerkinElmer) applying the following settings: Lance/Delfia dual mirror, emission filter 615, excitation filter 340 nm, delay time 400 μs, window 400 μs, 100 flashes, 2000 μs per cycle and bidirectional row-by-row reading. To determine IC₅₀ values, the binding curves were analyzed with non-linear regression (sigmoidal dose-response with variable slope, top-values constrained to a shared value for all data-sets) using GraphPad Prism V4.03 software (GraphPad Software, San Diego, Calif., USA).
(§2) FIG. 5 depicts representative examples of HGF binding inhibition curves of anti-c-Met antibodies for binding to the extracellular domain of recombinant human c-Met. 5D5 was used as positive control antibody. All anti-c-Met antibodies in the experiment shown were able to compete with Europium^{3±}-conjugated HGF for binding to recombinant c-Met. […] Without adding Europium³⁺-conjugated HGF, roughly ˜600 relative fluorescent units (RFU) were detected, indicating the signal when maximal inhibition is accomplished. When binding of Europium³⁺-conjugated HGF was not inhibited, approximately ˜66,000 RFU were detected.

[2] = molecular target: T1, recombinant human c-Met extracellular …; test: competition ELISA, residual Europium-HGF signal at 615 nm at the lower plateau of the fit; sheet prints no competing mAb ~66000, no HGF-Europium ~600; upper panel
Description: as §1, §2

cMetECDHis = molecular target: T2, cMetECDHis (human, UniProt P08581 25-932, limits assumed, biotinylated in the cross-block ELISA of Example 17); test: cross-block ELISA; competitor 022
T2 construct: Expressed in HEK-293F cells; also called soluble cMetECDHis; biotinylated cMetECDHis
Description: First, the optimal coating concentrations of the tested anti-c-Met antibodies and the optimal cMetECDHis concentration were determined. Therefore, ELISA wells were coated overnight at 4° C. with anti-c-Met HuMabs serially diluted in PBS (8 μg/mL in 2-fold dilutions). Next, the ELISA wells were washed with PBST (PBS supplemented with 0.05% Tween-20 [Sigma-Aldrich, Zwijndrecht, The Netherlands]) and blocked for one hour at room temperature (RT) with PBSTC (PBST supplemented 2% [v/v] chicken serum [Gibco, Paisley, Scotland]). Subsequently, the ELISA wells were washed with PBST and incubated for one hour at RT with biotinylated cMetECDHis serially diluted in PBSTC (1 μg/mL in 2-fold dilutions). Unbound biotinylated cMetECDHis was washed away with PBST, and bound biotinylated cMetECDHis was incubated for one hour at RT with 0.1 μg/mL Streptavidin-poly-HRP (Sanquin, Amsterdam, The Netherlands) diluted in PBST.
ELISA wells were coated with anti-c-Met antibody at a sub-optimal dose as described above. After blocking of the ELISA wells, they were incubated with the predetermined concentration of biotinylated cMetECDHis in the presence of an excess of anti-c-Met antibody. The reaction was developed as described above. Residual binding was expressed as a percentage relative to the binding observed in the absence of competitor antibody.

cMetSEMA-567His8 = molecular target: T3, cMetSEMA-567His8 (human, UniProt P08581 25-567, limits assumed); test: TR-FRET; displacement of AlexaFluor-647-HGF from cMetSEMA-567His8
T3 construct: In the TR-FRET assay detected by anti-6xhis Europium3+; also called cMetSEMAHis; SEMA domain of c-Met; not shown: C-terminal His tag; the text says His9, the construct name says His8
Description: Therefore, the interaction of anti-c-Met antibodies with the SEMA domain of the c-Met receptor was studied using TR-FRET technology. […] The mean fluorescent intensity at 665 nm was measured on the EnVision 2101 Multilabel reader (PerkinElmer).
A 4-fold serial dilution of unlabeled anti-c-Met antibody ranging from 0.49-8000 ng/mL was tested. After overnight incubation at 4° C. in the dark, mean fluorescence intensity at 665 nm was measured using the EnVision 2101 Multilabel reader applying the following settings: Lance/Delfia dual mirror, emission filter 615-665 nm, excitation filter 320 nm, delay time 60 μs, window 100 μs, 100 flashes, 2000 μs per cycle and bidirectional row-by-row reading. To determine IC₅₀ values, the binding curves were analyzed with non-linear regression (sigmoidal dose-response with variable slope) using GraphPad Prism V4.03 software (GraphPad Software, San Diego, Calif., USA).

[3] = molecular target: T4, human c-Met, membrane-bound on cells (human, UniProt P08581 25-1390); test: flow cytometry on A431 cells (PE goat anti-human IgG); second panel
T4 construct: whole, on cells; A431 cells carry on average 30,000 copies of c-Met per cell (Qifi); also called c-Met expressed on A431 cells; c-Met on A549 cells
In short: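 Antibodies and monovalent UniBody forms were bound to A431 cells expressing membrane-bound c-Met. Binding was detected by flow cytometry with PE-conjugated goat anti-human IgG. EC₅₀ values came from non-linear regression (sigmoidal dose-response, variable slope).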

B1: IgG1-1016-022 (antibody, V domains shown)
VH: QVQLVESGGGVVQPGRSLRLSCAASGFTFSSYAMHWVRQAPGKGLEWVAVISYDGSNKYYADSVKGRFTISRDNSKNTLYLQMNSLRAEDTAVYYCARELLWFGELWGYFDLWGRGTLVTVSS
VL: DIQMTQSPSSVSASVGDRVTITCRASQGISSWLAWYQHKPGKAPKLLIYAASSLQSGVPSRFSGSGSGTDFTLTISSLQPEDFATYYCQEASSFTWTFGQGTKVEIK
notes: also called TH1016-022; PC1016-022
Which results are given for B1?
IC50 [1]: 0.00927 µg/mL; Bottom [2]: 18200 RFU; residual binding, % of no competitor (cMetECDHis): 3.8%; % inhibition (cMetSEMA-567His8): 77%; IC50 (cMetSEMA-567His8): 0.37 µg/mL; EC50 [3]: 1.1 nM
